PMC7788559

Biological target: MRN (MRE11-RAD50-NBS1) wild type (Homo sapiens, UniProt P49959;Q92878;O60934 1-708;1-1312;1-754)
Experiment: pull-down, immunoblot

MRN (MRE11-RAD50-NBS1) wild type, sequence (P49959 whole entry, chain 1 of 3): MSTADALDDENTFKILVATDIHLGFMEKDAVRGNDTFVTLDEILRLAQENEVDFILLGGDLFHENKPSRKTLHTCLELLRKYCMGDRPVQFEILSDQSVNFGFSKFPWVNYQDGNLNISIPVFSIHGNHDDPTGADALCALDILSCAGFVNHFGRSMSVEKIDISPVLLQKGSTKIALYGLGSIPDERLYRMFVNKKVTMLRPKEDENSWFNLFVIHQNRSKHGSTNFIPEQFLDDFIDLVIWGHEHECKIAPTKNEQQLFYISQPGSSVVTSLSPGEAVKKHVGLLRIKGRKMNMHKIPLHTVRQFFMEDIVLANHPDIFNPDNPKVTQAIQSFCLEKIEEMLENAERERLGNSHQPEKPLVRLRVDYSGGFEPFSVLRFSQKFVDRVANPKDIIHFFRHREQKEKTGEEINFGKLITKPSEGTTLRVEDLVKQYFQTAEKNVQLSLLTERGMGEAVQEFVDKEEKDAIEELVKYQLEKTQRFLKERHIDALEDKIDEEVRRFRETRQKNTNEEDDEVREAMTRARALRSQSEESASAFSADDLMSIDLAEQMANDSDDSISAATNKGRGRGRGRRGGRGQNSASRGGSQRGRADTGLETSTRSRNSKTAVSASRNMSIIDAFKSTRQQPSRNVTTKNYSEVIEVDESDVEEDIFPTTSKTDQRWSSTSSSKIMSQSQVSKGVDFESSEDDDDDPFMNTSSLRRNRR
MRN (MRE11-RAD50-NBS1) wild type, sequence (Q92878 whole entry, chain 2 of 3): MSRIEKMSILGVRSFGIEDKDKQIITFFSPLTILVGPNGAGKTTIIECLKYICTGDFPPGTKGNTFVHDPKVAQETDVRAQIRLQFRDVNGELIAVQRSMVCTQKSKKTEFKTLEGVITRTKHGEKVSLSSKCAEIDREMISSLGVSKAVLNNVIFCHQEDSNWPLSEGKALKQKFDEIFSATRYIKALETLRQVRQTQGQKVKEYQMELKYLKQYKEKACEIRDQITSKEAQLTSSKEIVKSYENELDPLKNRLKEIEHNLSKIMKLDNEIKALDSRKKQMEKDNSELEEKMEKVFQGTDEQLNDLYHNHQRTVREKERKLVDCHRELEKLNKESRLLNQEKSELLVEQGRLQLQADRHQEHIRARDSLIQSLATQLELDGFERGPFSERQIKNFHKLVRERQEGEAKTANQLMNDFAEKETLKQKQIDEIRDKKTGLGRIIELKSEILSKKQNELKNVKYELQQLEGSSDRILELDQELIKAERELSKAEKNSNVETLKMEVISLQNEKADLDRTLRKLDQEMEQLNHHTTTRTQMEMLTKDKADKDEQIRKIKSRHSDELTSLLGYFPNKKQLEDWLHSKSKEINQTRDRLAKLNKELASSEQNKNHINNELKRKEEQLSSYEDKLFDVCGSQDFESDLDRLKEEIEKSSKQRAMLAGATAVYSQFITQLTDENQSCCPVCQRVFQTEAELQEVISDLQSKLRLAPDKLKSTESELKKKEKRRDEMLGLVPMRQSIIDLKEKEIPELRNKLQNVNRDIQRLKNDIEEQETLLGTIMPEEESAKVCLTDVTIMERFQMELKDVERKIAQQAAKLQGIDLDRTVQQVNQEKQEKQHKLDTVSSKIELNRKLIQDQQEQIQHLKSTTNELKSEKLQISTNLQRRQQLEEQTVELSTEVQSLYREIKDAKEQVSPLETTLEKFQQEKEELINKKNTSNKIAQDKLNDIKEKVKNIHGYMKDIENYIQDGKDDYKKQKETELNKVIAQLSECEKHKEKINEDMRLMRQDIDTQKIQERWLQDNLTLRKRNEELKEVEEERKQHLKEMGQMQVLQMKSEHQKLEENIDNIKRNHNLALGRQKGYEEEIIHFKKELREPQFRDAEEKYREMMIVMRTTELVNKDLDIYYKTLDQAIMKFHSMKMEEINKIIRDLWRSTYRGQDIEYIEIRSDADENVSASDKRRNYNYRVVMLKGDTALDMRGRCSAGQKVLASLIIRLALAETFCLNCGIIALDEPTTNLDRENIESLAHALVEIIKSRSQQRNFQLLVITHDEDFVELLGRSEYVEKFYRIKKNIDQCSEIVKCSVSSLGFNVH
MRN (MRE11-RAD50-NBS1) wild type, sequence (O60934 whole entry, chain 3 of 3): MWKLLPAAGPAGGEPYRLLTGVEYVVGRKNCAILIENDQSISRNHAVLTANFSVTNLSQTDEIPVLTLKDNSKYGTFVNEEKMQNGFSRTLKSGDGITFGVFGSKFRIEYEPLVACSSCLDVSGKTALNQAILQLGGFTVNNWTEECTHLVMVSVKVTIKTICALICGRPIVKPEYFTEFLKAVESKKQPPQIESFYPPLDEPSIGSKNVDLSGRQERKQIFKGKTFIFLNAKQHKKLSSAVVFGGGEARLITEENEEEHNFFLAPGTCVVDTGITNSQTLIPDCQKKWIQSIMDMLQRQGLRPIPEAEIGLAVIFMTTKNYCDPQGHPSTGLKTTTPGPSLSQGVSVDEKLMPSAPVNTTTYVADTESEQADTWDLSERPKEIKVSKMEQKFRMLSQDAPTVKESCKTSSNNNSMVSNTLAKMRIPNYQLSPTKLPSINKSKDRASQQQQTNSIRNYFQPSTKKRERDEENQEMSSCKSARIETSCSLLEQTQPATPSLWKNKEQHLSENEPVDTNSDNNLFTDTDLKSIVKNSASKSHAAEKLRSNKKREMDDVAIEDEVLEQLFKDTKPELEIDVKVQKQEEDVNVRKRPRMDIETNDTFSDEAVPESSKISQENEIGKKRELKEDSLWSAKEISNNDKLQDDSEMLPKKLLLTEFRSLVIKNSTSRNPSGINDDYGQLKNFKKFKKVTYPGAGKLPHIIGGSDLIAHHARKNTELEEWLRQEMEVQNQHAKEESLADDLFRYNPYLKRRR

B1: Sj60mer blunt dsDNA (dsDNA)
DNA 1: TTGTAAAACGACGGCCAGTGAATTCATCATCAATAATATACCTTATTTTGGGATCTATGC
DNA 2: GCATAGATCCCAAAATAAGGTATATTATTGATGATGAATTCACTGGCCGTCGTTTTACAA
  binding result: binds
